Results reported in patent publication US20240415889A1.

Legend:
[1] = biological target: CD94/NKG2A; test: BLI
Target sequence in this assay (main, as listed by the source): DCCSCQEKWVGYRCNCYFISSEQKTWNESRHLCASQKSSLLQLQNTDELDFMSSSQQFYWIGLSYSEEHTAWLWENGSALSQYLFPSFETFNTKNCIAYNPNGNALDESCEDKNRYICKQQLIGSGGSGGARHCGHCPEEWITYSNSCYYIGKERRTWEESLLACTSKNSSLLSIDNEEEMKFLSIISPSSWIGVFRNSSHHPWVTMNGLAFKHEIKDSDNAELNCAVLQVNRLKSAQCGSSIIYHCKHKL

[2] = biological target: CD94/NKG2A; test: reported IC50; reported value
[3] = biological target: CD94/NKG2A; test: competitive ELISA (HLA-E tetramer); FIG. 26
Target sequence in this assay (main, as listed by the source): as above

[4] = biological target: CD94/NKG2A; test: competitive ELISA (HLA-E tetramer)
Target sequence in this assay (main, as listed by the source): as above

Kd [1] [nM]	IC50 [2] [nM]	IC50 [3] [nM]	IC50 [4] [nM]	Substance
4.32	–	–	–	Mona analog IgG1 (LALA-PG)
–	2	1	1.5	Monalizumab
